Assay results from paper PMC7858582.
Each block holds one binder with its values, some of them ahead of it.

Experiments:
[1] = biological target: soluble recombinant mouse BAFF (mouse) (UniProt Q9WU72)
[2] = biological target: soluble recombinant mouse BAFF (mouse) (UniProt Q9WU72); remark: listed apart in the source

UniProt Q9WU72, sequence (Q9WU72 127-309): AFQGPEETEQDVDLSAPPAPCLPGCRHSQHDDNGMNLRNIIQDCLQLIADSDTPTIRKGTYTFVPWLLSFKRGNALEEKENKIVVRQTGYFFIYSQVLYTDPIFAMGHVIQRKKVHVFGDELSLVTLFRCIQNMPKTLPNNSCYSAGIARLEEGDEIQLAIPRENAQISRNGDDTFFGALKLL

- percent of NgR1+ or NgR3+ B-cells isolated from spinal cord of EAE ngr1+/+ mice in S phase (BrdU/7AAD flow cytometry) after 50 ng/mL rBAFF pre-incubated with excess rBAFF-R [1]: 27.7%
B1: recombinant BAFF-R (receptor)
chain: MGARRLRVRSQRSRDSSVPTQCNQTECFDPLVRNCVSCELFHTPDTGHTSSLEPGTALQPQEGSALRPDVALLVGAPALLGLILALTLVGLVSLVSWRWRQQLRTASPDTSEGVQQESLENVFVPSSETPHASAPTWPPLKEDADSALPRHSVPVPATELGSTELVTTKTAGPEQ

- percent of B-cells isolated from spleen entering the S phase after rBAFF pre-incubated with excess NgR-Fc [2]: 8%
- percent of B-cells isolated from spleen halted in the G0/G1 phase after rBAFF pre-incubated with excess NgR-Fc [2]: 85.5%
- percent of NgR1+ or NgR3+ B-cells isolated from spinal cord of EAE ngr1+/+ mice in S phase (BrdU/7AAD flow cytometry) after 50 ng/mL rBAFF pre-incubated with excess NgR-Fc [1]: 20.6%
- percent of isolated spinal cord B-cells staying in the G0/G1 phase after rBAFF pre-incubated with excess NgR-Fc [1]: 55.8%
B2: NgR1-Fc (Fc fusion)
chain: CPGACVCYNEPKVTTSCPQQGLQAVPTGIPASSQRIFLHGNRISHVPAASFQSCRNLTILWLHSNALARIDAAAFTGLTLLEQLDLSDNAQLHVVDPTTFHGLGHLHTLHLDRCGLRELGPGLFRGLAALQYLYLQDNNLQALPDNTFRDLGNLTHLFLHGNRIPSVPEHAFRGLHSLDRLLLHQNHVARVHPHAFRDLGRLMTLYLFANNLSMLPAEVLMPLRSLQYLRLNDNPWVCDCRARPLWAWLQKFRGSSSEVPCNLPQRLADRDLKRLAASDLEGCAVASGPFRPIQTSQLTDEELLSLPKCCQPDAADKASVLEPGRPASAGNALKGRVPPGDTPPGNGSGPRHINDSPFGTLPSSAEPPLTALRPGGSEPPGLPTTGPRRRPGCSRKNRTRSHCRLGQAGSGASGTGDAEGS
